Laboratory results as given in the supplement of paper PMC7877785.
± gives the uncertainty stated by the source.

Test: self-splicing fitness, log relative to wild type (ln ratio); higher = more splicing; Tetrahymena group I intron in knt gene, E. coli kanamycin selection, DiMSum; sequences stand for … in CUCUCU…GGAGGGAAAAGUUAUCAGGCAUGCACCUGGUAGCUAGUCUUUAAACCAAUAGAUUGCAUCGGUUUAAAAGGCAAGACCGUCAAAUUGCGGGAAAGGGGUCAACAGCCGUUCAGUACCAAGUCUCAGGGGAAACUUUGAGAUGGCCUUGCAAAGGGUAUGGUAAUAAGCUGACGGACAUGGUCCUAACCACGCAGCCAAGUCCUAAGUCAACAGAUCUUCUGUUGAUAUGGAUGCAGUUCACAGACUAAAUGUCGGUCGGGGAAGAUGUAUUCUUCUCAUAAGAUAUAGUCGGACCUCUCCUUAAUGGGAGCUAGCGGAUGAAGUGAUGCAACACUGGAGCCGCUGGGAACUAAUUUGUAUGCGAAAGUAUAUUGAUUAGUUUUGGAGUACUCGUGGUCG
Summary of the method: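 Fitness was computed with DiMSum as the error-weighted combination of replicate fold changes, kanamycin versus none, each normalised to wild type. The library randomised all eight intron nucleotides of the P1ex region, with the intron placed in the knt kanamycin-resistance gene on pET-22b(+) in E. coli BL21(DE3). Six replicate transformations were grown overnight at 37°C or 30°C on LB agar with or without 25 μg/mL kanamycin, plus 100 μg/mL carbenicillin, 50 μM IPTG and 0.2% rhamnose. Pooled colonies were amplicon-sequenced on an Illumina HiSeq 2500.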

Row | Sequence | self-splicing fitness (ln) (30 °C) | self-splicing fitness (ln) (37 °C)
1 | AUAGAGCAAUAUUACGGAUC | -2.96 ± 0.3 | -2.14 ± 0.31
2 | AUAGAGCAAUAUUACGGCAG | -2.15 ± 0.19 | -1.37 ± 0.16
3 | AUAGAGCAAUAUUACGGCGG | -1.71 ± 0.1 | -1.32 ± 0.13
4 | AUAGAGCAAUAUUACGGGAG | -4.25 ± 0.24 | -2.26 ± 0.22
5 | AUAGAGCAAUAUUACGGGUA | -2.89 ± 0.16 | -2.53 ± 0.24
6 | AUAGAGCAAUAUUACGGGUC | -3.75 ± 0.36 | -2.58 ± 0.24
7 | AUAGAGCAAUAUUACGGGUU | -2.43 ± 0.16 | -1.1 ± 0.17
8 | AUAGAGCAAUAUUACGGUGA | -1.49 ± 0.15 | -1.41 ± 0.19
9 | AUAGAGCAAUAUUACGUAGC | -3.16 ± 0.29 | -2.27 ± 0.3
10 | AUAGAGCAAUAUUACGUGAA |  | -1.07 ± 0.25
11 | AUAGAGCAAUAUUACGUGAC | -1.62 ± 0.23 | -1.6 ± 0.28
12 | AUAGAGCAAUAUUACGUGAG | -3.77 ± 0.21 | -2.42 ± 0.14
13 | AUAGAGCAAUAUUACGUGCA | -0.67 ± 0.069 | -0.162 ± 0.1
14 | AUAGAGCAAUAUUACGUGCC | -3.44 ± 0.41 | -1.69 ± 0.4
15 | AUAUAGCAAUAUUACGAAGG | -2.83 ± 0.3 | -2.3 ± 0.4
16 | AUAUAGCAAUAUUACGACAG | -2.12 ± 0.19 | -1.51 ± 0.27
17 | AUAUAGCAAUAUUACGAUAA | -1.38 ± 0.31 | -0.229 ± 0.39
18 | AUAUAGCAAUAUUACGCAUA | -2.02 ± 0.26 | -0.946 ± 0.26
19 | AUAUAGCAAUAUUACGCCAA | -1.24 ± 0.45 | -0.89 ± 0.42
20 | AUAUAGCAAUAUUACGCGUG | -1.1 ± 0.12 | -0.528 ± 0.14
21 | AUAUAGCAAUAUUACGGACG | -2.09 ± 0.16 | -1.07 ± 0.19
22 | AUAUAGCAAUAUUACGGGGG | -2.92 ± 0.36 | -0.973 ± 0.28
23 | AUAUAGCAAUAUUACGGUUC | -3.14 ± 0.17 | -2.5 ± 0.24
24 | AUAUAGCAAUAUUACGUACG | -2.49 ± 0.2 | -0.317 ± 0.15
25 | AUAUAGCAAUAUUACGUCGA | -2.07 ± 0.17 | -1.51 ± 0.2
26 | AUAUAGCAAUAUUACGUGAG | -1.81 ± 0.063 | -0.565 ± 0.096

Row | Sequence | self-splicing fitness (ln) (30 °C) | self-splicing fitness (ln) (37 °C)
27 | AUAUAGCAAUAUUACGUUCG | -1.57 ± 0.2 | -0.377 ± 0.27
28 | AUAUAGCAAUAUUACGUUUU | -2.98 ± 0.22 | -1.82 ± 0.22
29 | AUCAAGCAAUAUUACGAAAG | -3.67 ± 0.21 | -2.74 ± 0.25
30 | AUCAAGCAAUAUUACGAACU | -0.00363 ± 0.11 | 0.0259 ± 0.11
31 | AUCAAGCAAUAUUACGACGA | -1.26 ± 0.095 | -0.128 ± 0.11
32 | AUCAAGCAAUAUUACGAGCU | -1.24 ± 0.084 | -0.596 ± 0.1
33 | AUCAAGCAAUAUUACGAUGG | -3.43 ± 0.26 | -2.67 ± 0.2
34 | AUCAAGCAAUAUUACGCAUU | -2.32 ± 0.12 | -1.69 ± 0.14
35 | AUCAAGCAAUAUUACGCUGC | -2.4 ± 0.41 | -0.934 ± 0.33
36 | AUCAAGCAAUAUUACGGAAU | -1.94 ± 0.071 | -1.03 ± 0.083
37 | AUCAAGCAAUAUUACGGAGG | -2.43 ± 0.096 | -1.36 ± 0.13
38 | AUCAAGCAAUAUUACGGAUG | -2.01 ± 0.079 | -0.664 ± 0.082
39 | AUCAAGCAAUAUUACGGCGA | -0.555 ± 0.077 | 0.246 ± 0.1
40 | AUCAAGCAAUAUUACGGCGG | -1.04 ± 0.066 | -0.788 ± 0.091
41 | AUCAAGCAAUAUUACGGGUG | -1.4 ± 0.088 | -0.416 ± 0.087
42 | AUCAAGCAAUAUUACGGUCU | -1.54 ± 0.11 | -0.196 ± 0.095
43 | AUCAAGCAAUAUUACGUAUA | -2.76 ± 0.23 | -2.31 ± 0.19
44 | AUCCAGCAAUAUUACGACCG | -1.43 ± 0.084 | -0.707 ± 0.12
45 | AUCCAGCAAUAUUACGAGAA | -2.6 ± 0.24 | -1.22 ± 0.22
46 | AUCCAGCAAUAUUACGAUGC | -2.01 ± 0.15 | -0.963 ± 0.17
47 | AUCCAGCAAUAUUACGAUUG | -4.83 ± 0.34 | -3.03 ± 0.24
48 | AUCCAGCAAUAUUACGCAUG | -3.68 ± 0.27 | -0.669 ± 0.13
49 | AUCCAGCAAUAUUACGCCCC | -0.216 ± 0.11 | 0.691 ± 0.19
50 | AUCCAGCAAUAUUACGCGCA | -0.994 ± 0.067 | -0.169 ± 0.081
51 | AUCCAGCAAUAUUACGCUGA | -1.36 ± 0.097 | -1.22 ± 0.13
52 | AUCCAGCAAUAUUACGGAAA | -1.07 ± 0.092 | -1.02 ± 0.084

Row | Sequence | self-splicing fitness (ln) (30 °C) | self-splicing fitness (ln) (37 °C)
53 | AUCCAGCAAUAUUACGGAAU | -2.94 ± 0.13 | -1.91 ± 0.17
54 | AUCCAGCAAUAUUACGGAGA | -2.43 ± 0.14 | -0.986 ± 0.12
55 | AUCCAGCAAUAUUACGGAGU | -3.02 ± 0.098 | -1.99 ± 0.11
56 | AUCCAGCAAUAUUACGGCCG | -1.22 ± 0.097 | -0.00834 ± 0.12
57 | AUCCAGCAAUAUUACGGCUA | -0.15 ± 0.092 | -0.19 ± 0.08
58 | AUCCAGCAAUAUUACGGGCU | -3.07 ± 0.16 | -2.64 ± 0.17
59 | AUCCAGCAAUAUUACGGUUU | -1.04 ± 0.05 | -0.324 ± 0.068
60 | AUCCAGCAAUAUUACGUAGC | -2.3 ± 0.08 | -1.78 ± 0.11
61 | AUCCAGCAAUAUUACGUGCU | -2.83 ± 0.17 | -2.88 ± 0.31
62 | AUCCAGCAAUAUUACGUUAG | -3.22 ± 0.17 | -3.56 ± 0.35
63 | AUCCAGCAAUAUUACGUUCC | -1.19 ± 0.13 | -0.575 ± 0.25
64 | AUCCAGCAAUAUUACGUUGA | -1.6 ± 0.077 | -0.866 ± 0.087
65 | AUCGAGCAAUAUUACGAAAG | -2.41 ± 0.13 | -0.783 ± 0.14
66 | AUCGAGCAAUAUUACGAACG | -2.49 ± 0.22 | -1.65 ± 0.33
67 | AUCGAGCAAUAUUACGACAA | -2.78 ± 0.18 | -2.2 ± 0.18
68 | AUCGAGCAAUAUUACGACAU | -0.347 ± 0.013 | 0.0643 ± 0.033
69 | AUCGAGCAAUAUUACGAGGC |  | -1.13 ± 0.28
70 | AUCGAGCAAUAUUACGCAGA | -3.09 ± 0.18 | -2.46 ± 0.16
71 | AUCGAGCAAUAUUACGCCAU | -2.34 ± 0.31 | -2.79 ± 0.3
72 | AUCGAGCAAUAUUACGCCUG | -3.45 ± 0.36 | -1.78 ± 0.22
73 | AUCGAGCAAUAUUACGCUAC |  | -1.06 ± 0.29
74 | AUCGAGCAAUAUUACGCUAG | -4.43 ± 0.46 | -2.64 ± 0.33
75 | AUCGAGCAAUAUUACGGACU | -0.916 ± 0.16 | -0.737 ± 0.19
76 | AUCGAGCAAUAUUACGGCAA | -2.19 ± 0.15 | -2.06 ± 0.18
77 | AUCGAGCAAUAUUACGGCUA | -1.22 ± 0.12 | -1.28 ± 0.12
